According to paper PMC5087439, “One Step Assembly of Thin Films of Carbon Nanotubes on Screen Printed Interface for Electrochemical Aptasensing of Breast Cancer Biomarker”:

Molecular target: MUC1 (mucine) (UniProt P15941 24-1097)
Experiment: electrochemical impedance spectroscopy (aptamer immobilized on electrode); 2 mM [Fe(CN)6]4-/3- redox probe; 1 mM Mg2+; observed (apparent) Kd, stated as about 0.1 U/mL; Binding buffer pH 7.4: 1 mM MgCl2, 140 mM NaCl, 2.7 mM KCl, 0.1 mM Na2HPO4, 1.8 mM KH2PO4; 45 min incubation; temperature not stated

Sequence of MUC1 (mucine) (P15941 24-1097): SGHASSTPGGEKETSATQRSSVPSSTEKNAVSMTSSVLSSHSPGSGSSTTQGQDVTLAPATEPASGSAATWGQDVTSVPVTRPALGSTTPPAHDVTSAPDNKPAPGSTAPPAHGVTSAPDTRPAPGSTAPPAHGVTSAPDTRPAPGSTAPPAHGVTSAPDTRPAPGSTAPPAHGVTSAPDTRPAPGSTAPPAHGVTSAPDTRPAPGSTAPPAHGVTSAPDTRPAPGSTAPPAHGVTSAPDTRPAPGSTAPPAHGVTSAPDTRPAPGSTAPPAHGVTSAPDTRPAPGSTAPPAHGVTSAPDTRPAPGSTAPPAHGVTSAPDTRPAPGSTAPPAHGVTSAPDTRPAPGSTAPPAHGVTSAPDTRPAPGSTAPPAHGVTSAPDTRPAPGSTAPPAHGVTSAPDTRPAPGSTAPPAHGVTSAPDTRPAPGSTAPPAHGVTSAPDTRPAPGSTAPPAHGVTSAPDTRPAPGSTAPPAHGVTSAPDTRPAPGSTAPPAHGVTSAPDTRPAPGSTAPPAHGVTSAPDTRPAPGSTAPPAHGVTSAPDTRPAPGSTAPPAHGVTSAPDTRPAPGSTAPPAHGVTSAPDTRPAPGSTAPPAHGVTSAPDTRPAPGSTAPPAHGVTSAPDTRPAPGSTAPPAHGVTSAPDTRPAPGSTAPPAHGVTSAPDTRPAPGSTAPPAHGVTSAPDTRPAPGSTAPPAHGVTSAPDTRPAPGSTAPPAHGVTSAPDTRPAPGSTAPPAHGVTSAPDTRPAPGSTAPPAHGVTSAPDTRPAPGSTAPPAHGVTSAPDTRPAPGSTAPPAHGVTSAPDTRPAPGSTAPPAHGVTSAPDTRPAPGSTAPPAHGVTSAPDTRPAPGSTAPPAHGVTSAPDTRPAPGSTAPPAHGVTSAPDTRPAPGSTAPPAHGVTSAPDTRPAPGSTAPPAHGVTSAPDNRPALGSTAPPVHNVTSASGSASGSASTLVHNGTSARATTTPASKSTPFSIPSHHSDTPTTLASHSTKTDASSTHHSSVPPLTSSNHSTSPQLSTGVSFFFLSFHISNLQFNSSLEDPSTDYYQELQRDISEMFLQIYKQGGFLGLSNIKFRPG

## GCAGTTGATCCTTTGGATACCCTGG (ssDNA, 3'-NH2) [MUC1 aptamer]
  Kd: 630 nM
